Values belong to the substance of their own block, whether it stands above or below them.
How the values were obtained:
[1] = target: DPF2 (Double PHD Fingers 2) (human) (UniProt Q92785); test: colloidal blue stain and fluorometric analysis of DPF2-purified complexes
ACTL6A (human) [2] = target: ACTL6A (human) (UniProt O96019); test: HA affinity purification from HEK-293T nuclear extract, glycerol gradient fraction 15, mass spectrometry (co-purification in the complex)
BCL7A (human) [3] = target: BCL7A (human) (UniProt Q4VC05); test: as above
BCL7C (human) [4] = target: BCL7C (human) (UniProt Q8WUZ0); test: as above
BRD7 (human) = BRD7 (human) (UniProt Q9NPI1); test: as above
BRD9 (human) = BRD9 (human) (UniProt Q9H8M2); test: as above
DPF1 (human) = DPF1 (human) (UniProt Q92782); test: as above
DPF2 (human) = DPF2 (human) (UniProt Q92785); test: as above
DPF3 (human) = DPF3 (human) (UniProt Q92784); test: as above
GLTSCR1 (human) = GLTSCR1 (human) (UniProt Q9NZM4); test: as above
GLTSCR1L (human) = GLTSCR1L (human) (UniProt Q6AI39); test: as above
PBRM1 (human) = PBRM1 (human) (UniProt Q86U86); test: as above
PHF10 (human) = PHF10 (human) (UniProt Q8WUB8); test: as above
SMARCB1 (human) [5] = target: SMARCB1 (human) (UniProt Q12824); test: as above
SS18L1 (human) [6] = target: SS18L1 (human) (UniProt O75177); test: as above
[7] = target: DPF1 (entry E9PDV3) (human); test: HA affinity purification of HA-SMARCD1 mSWI/SNF complexes from HEK-293T nuclear extract, glycerol gradient fraction 15, mass spectrometry; co-purification in the complex, not necessarily direct contact
[8] = target: SMARCA4 (entry Q9HBD4) (human); test: as above
ACTL6A (human) [9] = target: ACTL6A (human) (UniProt O96019); test: HA affinity purification of HA-DPF2 from HEK-293T nuclear extract, glycerol gradient fraction 14, mass spectrometry of co-purified proteins
BCL7A (human) [10] = target: BCL7A (human) (UniProt Q4VC05); test: as above
BCL7C (human) [11] = target: BCL7C (human) (UniProt Q8WUZ0); test: as above
SMARCB1 (human) [12] = target: SMARCB1 (human) (UniProt Q12824); test: as above
SMARCD1 (human) = SMARCD1 (human) (UniProt Q96GM5); test: as above
SMARCD2 (human) = SMARCD2 (human) (UniProt Q92925); test: as above
SMARCE1 (human) = SMARCE1 (human) (UniProt Q969G3); test: as above
SS18 (human) = SS18 (human) (UniProt Q15532); test: as above
SS18L1 (human) [13] = target: SS18L1 (human) (UniProt O75177); test: as above

SS18L1 (human), sequence (O75177 whole entry): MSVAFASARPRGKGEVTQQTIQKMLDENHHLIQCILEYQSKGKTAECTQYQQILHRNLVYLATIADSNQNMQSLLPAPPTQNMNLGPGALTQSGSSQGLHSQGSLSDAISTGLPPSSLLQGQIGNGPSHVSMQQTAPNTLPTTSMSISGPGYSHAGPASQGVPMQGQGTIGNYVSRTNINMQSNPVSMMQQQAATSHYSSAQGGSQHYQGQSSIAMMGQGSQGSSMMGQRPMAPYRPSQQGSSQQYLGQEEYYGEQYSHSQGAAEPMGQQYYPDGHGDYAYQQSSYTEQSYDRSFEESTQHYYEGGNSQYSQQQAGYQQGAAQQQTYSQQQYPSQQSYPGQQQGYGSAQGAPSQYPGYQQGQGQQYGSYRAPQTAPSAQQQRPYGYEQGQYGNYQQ
SMARCB1 (human), sequence (Q12824 whole entry): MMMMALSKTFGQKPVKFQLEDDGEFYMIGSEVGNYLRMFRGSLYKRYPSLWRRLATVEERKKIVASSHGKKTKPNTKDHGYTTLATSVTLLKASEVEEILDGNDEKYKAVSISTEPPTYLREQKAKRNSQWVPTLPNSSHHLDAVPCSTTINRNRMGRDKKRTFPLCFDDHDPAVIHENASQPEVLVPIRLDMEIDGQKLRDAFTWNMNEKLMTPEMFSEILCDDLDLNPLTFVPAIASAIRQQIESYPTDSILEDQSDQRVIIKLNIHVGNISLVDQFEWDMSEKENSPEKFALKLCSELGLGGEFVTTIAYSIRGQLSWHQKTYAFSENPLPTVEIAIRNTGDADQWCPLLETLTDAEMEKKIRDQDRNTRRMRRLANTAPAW
ACTL6A (human), sequence (O96019 2-429 limits assumed): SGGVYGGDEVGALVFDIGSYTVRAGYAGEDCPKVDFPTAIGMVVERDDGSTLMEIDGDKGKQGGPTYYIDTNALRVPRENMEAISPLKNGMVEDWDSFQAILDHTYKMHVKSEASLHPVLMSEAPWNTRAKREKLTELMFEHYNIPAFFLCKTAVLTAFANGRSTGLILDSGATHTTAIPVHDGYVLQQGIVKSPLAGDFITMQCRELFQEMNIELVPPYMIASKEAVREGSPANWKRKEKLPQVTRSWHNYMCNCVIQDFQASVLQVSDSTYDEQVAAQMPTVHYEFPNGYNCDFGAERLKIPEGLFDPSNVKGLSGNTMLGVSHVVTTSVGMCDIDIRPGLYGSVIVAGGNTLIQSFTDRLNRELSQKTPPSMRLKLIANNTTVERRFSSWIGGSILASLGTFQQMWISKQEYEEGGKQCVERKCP
BCL7A (human), sequence (Q4VC05 whole entry): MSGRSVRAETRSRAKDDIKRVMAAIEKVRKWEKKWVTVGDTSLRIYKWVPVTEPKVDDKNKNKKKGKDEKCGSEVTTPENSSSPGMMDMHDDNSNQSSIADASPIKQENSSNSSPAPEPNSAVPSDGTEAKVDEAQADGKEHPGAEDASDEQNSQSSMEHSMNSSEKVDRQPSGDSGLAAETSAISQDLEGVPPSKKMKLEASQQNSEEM
GLTSCR1L (human), sequence (Q6AI39 whole entry): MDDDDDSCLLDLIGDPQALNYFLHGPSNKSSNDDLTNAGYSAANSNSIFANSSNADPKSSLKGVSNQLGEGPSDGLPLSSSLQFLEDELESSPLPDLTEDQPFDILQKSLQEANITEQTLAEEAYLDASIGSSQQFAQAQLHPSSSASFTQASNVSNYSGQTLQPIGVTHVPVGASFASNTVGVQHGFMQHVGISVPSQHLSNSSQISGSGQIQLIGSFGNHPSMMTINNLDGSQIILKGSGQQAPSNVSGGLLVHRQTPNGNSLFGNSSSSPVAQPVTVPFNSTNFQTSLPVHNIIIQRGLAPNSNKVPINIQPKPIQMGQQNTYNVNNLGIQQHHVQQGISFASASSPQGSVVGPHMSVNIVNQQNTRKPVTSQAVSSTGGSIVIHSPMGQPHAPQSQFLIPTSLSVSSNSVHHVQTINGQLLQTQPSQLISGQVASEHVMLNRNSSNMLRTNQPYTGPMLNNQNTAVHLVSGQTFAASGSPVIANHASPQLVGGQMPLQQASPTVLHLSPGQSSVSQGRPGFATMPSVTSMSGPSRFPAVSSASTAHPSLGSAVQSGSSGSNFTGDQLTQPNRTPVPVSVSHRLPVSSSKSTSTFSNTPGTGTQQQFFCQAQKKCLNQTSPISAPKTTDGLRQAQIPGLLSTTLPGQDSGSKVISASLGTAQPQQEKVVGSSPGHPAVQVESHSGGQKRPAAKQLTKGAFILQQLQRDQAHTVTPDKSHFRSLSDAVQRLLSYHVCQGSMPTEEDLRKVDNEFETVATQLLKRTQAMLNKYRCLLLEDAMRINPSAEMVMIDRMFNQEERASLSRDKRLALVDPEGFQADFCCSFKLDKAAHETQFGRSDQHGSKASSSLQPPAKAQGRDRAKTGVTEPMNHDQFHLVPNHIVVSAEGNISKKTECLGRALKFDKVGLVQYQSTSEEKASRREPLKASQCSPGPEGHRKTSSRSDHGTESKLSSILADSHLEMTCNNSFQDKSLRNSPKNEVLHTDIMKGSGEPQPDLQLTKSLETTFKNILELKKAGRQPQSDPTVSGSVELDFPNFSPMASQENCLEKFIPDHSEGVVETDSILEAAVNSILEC
BRD9 (human), sequence (Q9H8M2 whole entry): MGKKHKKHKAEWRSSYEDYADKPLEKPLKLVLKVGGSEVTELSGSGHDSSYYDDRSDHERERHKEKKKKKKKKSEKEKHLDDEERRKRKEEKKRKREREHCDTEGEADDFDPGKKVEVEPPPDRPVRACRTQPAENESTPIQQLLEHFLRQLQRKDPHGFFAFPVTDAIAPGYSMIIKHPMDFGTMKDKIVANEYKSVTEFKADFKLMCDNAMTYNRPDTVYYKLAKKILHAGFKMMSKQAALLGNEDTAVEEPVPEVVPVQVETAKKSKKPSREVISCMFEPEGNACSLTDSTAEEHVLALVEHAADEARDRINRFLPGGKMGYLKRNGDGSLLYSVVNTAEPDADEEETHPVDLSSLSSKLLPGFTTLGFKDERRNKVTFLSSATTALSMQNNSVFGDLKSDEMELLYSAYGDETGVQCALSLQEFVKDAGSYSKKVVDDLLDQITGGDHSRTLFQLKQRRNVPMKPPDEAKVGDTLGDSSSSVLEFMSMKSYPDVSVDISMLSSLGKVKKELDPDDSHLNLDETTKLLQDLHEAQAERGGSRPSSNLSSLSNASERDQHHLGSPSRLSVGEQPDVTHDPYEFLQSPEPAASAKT
PBRM1 (human), sequence (Q86U86 whole entry): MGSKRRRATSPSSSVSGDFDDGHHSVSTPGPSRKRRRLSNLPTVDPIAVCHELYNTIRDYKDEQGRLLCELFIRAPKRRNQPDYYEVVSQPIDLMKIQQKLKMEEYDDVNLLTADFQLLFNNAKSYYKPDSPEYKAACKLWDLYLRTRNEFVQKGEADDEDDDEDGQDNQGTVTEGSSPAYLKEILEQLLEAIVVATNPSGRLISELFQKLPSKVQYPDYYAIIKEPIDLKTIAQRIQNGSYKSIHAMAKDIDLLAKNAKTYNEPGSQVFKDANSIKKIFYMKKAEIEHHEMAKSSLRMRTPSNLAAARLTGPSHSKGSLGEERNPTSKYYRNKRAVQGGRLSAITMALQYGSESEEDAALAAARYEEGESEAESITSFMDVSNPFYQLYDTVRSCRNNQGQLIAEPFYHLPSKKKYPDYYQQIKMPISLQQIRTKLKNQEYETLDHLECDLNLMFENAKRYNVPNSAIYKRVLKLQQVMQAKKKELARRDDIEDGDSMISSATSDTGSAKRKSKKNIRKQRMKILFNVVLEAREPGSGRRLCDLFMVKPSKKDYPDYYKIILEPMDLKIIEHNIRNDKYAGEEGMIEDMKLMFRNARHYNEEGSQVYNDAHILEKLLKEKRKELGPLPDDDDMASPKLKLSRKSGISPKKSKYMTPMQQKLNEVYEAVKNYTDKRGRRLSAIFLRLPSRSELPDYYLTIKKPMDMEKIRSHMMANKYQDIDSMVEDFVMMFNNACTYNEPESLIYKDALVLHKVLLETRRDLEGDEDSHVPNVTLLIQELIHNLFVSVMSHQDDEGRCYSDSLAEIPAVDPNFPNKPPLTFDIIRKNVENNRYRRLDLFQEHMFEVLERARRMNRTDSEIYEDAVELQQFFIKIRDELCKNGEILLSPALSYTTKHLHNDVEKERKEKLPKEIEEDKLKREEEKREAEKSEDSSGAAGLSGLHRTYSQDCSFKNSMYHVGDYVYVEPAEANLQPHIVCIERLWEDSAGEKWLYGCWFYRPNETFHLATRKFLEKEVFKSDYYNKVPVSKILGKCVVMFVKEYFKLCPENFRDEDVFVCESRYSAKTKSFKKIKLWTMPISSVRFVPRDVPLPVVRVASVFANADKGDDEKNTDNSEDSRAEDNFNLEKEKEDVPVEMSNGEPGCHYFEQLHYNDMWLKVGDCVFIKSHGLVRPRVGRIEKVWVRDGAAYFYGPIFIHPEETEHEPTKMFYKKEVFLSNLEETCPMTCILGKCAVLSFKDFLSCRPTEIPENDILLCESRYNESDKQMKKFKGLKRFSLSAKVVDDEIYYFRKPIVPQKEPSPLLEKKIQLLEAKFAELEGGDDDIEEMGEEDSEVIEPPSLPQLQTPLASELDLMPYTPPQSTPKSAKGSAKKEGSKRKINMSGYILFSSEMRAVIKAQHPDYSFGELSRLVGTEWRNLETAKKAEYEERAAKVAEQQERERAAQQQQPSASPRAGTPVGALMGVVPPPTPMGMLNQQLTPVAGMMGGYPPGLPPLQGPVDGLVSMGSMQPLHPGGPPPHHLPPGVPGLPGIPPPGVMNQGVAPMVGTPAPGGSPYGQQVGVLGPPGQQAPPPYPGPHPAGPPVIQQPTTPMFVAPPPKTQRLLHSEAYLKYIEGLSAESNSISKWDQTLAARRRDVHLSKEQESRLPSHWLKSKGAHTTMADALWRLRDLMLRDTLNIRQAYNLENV

- stoichiometry relative to DPF2 bait (copies per DPF2) [1]: 1
Substance: SMARCC2 (SWI/SNF related, matrix associated, actin dependent regulator of chromatin subfamily c member 2) (from UniProt Q8TAQ2 1-1214)

- total peptides (ACTL6A (human) [2]): 58 peptides
- total peptides (BCL7A (human) [3]): 33 peptides
- unique peptides (BCL7A (human) [3]): 12 peptides
- total peptides (BCL7C (human) [4]): 19 peptides
- unique peptides (BCL7C (human) [4]): 8 peptides
- total peptides (BRD7 (human)): 29 peptides
- unique peptides (BRD7 (human)): 19 peptides
- total peptides (BRD9 (human)): 8 peptides
- unique peptides (BRD9 (human)): 8 peptides
- total peptides (DPF1 (human)): 7 peptides
- unique peptides (DPF1 (human)): 6 peptides
- total peptides (DPF2 (human)): 41 peptides
- unique peptides (DPF2 (human)): 19 peptides
- total peptides (DPF3 (human)): 12 peptides
- unique peptides (DPF3 (human)): 10 peptides
- total peptides (GLTSCR1 (human)): 11 peptides
- unique peptides (GLTSCR1 (human)): 10 peptides
- total peptides (GLTSCR1L (human)): 1 peptides
- unique peptides (GLTSCR1L (human)): 1 peptides
- total peptides (PBRM1 (human)): 115 peptides
- unique peptides (PBRM1 (human)): 79 peptides
- total peptides (PHF10 (human)): 14 peptides
- unique peptides (PHF10 (human)): 14 peptides
- total peptides (SMARCB1 (human) [5]): 75 peptides
- total peptides (SS18L1 (human) [6]): 2 peptides
- unique peptides (SS18L1 (human) [6]): 2 peptides
- total peptides [7]: 1
- unique peptides [7]: 1
- total peptides [8]: 1
- unique peptides [8]: 1
Substance: HA-SMARCD1 (from UniProt Q96GM5 1-515)

- total peptides (ACTL6A (human) [9]): 61 peptides
- unique peptides (ACTL6A (human) [9]): 23 peptides
- total peptides (BCL7A (human) [10]): 36 peptides
- total peptides (BCL7C (human) [11]): 13 peptides
- unique peptides (BCL7C (human) [11]): 7 peptides
- total peptides (SMARCB1 (human) [12]): 62 peptides
- unique peptides (SMARCB1 (human) [12]): 22 peptides
- total peptides (SMARCD1 (human)): 83 peptides
- unique peptides (SMARCD1 (human)): 37 peptides
- total peptides (SMARCD2 (human)): 51 peptides
- unique peptides (SMARCD2 (human)): 32 peptides
- total peptides (SMARCE1 (human)): 118 peptides
- unique peptides (SMARCE1 (human)): 40 peptides
- total peptides (SS18 (human)): 2 peptides
- unique peptides (SS18 (human)): 2 peptides
- total peptides (SS18L1 (human) [13]): 3 peptides
- unique peptides (SS18L1 (human) [13]): 2 peptides
Substance: HA-DPF2 (from UniProt Q92785 1-391)
